Experimental data reported in patent US9657062B2, “Ghrelin analogues” (Zealand Pharma A/S, priority 2012, dated 2017).
Bridges are numbered along the chain shown (N, C = ends). [ ]: non-standard residue; d: D form. The star is where a group is joined. Octanoyl = CCCCCCCC(=O)*; Dap = NC[C@H](N)C(=O)O; Octyl = CCCCCCCC*

B1: H-Orn-S(O-octyl)-FLSPEHQRVQQRKESKKPPAKLQPR-NH2 (peptide)
peptide: RSFLSPEHQRVQQRKESKKPPAKLQPR
modifications: N-terminal Orn (ornithine, stands for X1 and X2 together); next residue Ser(O-octyl) (position 3 of the formula); C-terminal amide (-NH2)
B2: H-PS-Dap(N-octanoyl)-FLSP-NH2 (peptide)
peptide: H-PS[Dap](Octanoyl)FLSP-NH2
SMILES: CCCCCCCC(=O)NC[C@H](NC(=O)[C@H](CO)NC(=O)[C@@H]1CCCN1)C(=O)N[C@@H](Cc1ccccc1)C(=O)N[C@@H](CC(C)C)C(=O)N[C@@H](CO)C(=O)N1CCC[C@H]1C(N)=O
B3: Ac-Orn-S(O-octyl)-FLSPEHQRVQQRKESKKPPAKLQPR-NH2 (peptide)
peptide: RSFLSPEHQRVQQRKESKKPPAKLQPR
modifications: N-terminal Ac-Orn (acetylated ornithine, stands for X1 and X2 together); next residue Ser(O-octyl) (position 3 of the formula); C-terminal amide (-NH2)
B4: H-PS-Dap(N-octanoyl)-FLSPEHQRVQQRKESKKPPA-NH2 (peptide)
peptide: H-PS[Dap](Octanoyl)FLSPEHQRVQQRKESKKPPA-NH2
SMILES: CCCCCCCC(=O)NC[C@H](NC(=O)[C@H](CO)NC(=O)[C@@H]1CCCN1)C(=O)N[C@@H](Cc1ccccc1)C(=O)N[C@@H](CC(C)C)C(=O)N[C@@H](CO)C(=O)N1CCC[C@H]1C(=O)N[C@@H](CCC(=O)O)C(=O)N[C@@H](Cc1c[nH]cn1)C(=O)N[C@@H](CCC(N)=O)C(=O)N[C@@H](CCCNC(=N)N)C(=O)N[C@H](C(=O)N[C@@H](CCC(N)=O)C(=O)N[C@@H](CCC(N)=O)C(=O)N[C@@H](CCCNC(=N)N)C(=O)N[C@@H](CCCCN)C(=O)N[C@@H](CCC(=O)O)C(=O)N[C@@H](CO)C(=O)N[C@@H](CCCCN)C(=O)N[C@@H](CCCCN)C(=O)N1CCC[C@H]1C(=O)N1CCC[C@H]1C(=O)N[C@@H](C)C(N)=O)C(C)C
B5: H-PS-Dap(N-octanoyl)-FLSPEHSRVSSRKESKKPPAKLSPR-NH2 (peptide)
peptide: H-PS[Dap](Octanoyl)FLSPEHSRVSSRKESKKPPAKLSPR-NH2
SMILES: CCCCCCCC(=O)NC[C@H](NC(=O)[C@H](CO)NC(=O)[C@@H]1CCCN1)C(=O)N[C@@H](Cc1ccccc1)C(=O)N[C@@H](CC(C)C)C(=O)N[C@@H](CO)C(=O)N1CCC[C@H]1C(=O)N[C@@H](CCC(=O)O)C(=O)N[C@@H](Cc1c[nH]cn1)C(=O)N[C@@H](CO)C(=O)N[C@@H](CCCNC(=N)N)C(=O)N[C@H](C(=O)N[C@@H](CO)C(=O)N[C@@H](CO)C(=O)N[C@@H](CCCNC(=N)N)C(=O)N[C@@H](CCCCN)C(=O)N[C@@H](CCC(=O)O)C(=O)N[C@@H](CO)C(=O)N[C@@H](CCCCN)C(=O)N[C@@H](CCCCN)C(=O)N1CCC[C@H]1C(=O)N1CCC[C@H]1C(=O)N[C@@H](C)C(=O)N[C@@H](CCCCN)C(=O)N[C@@H](CC(C)C)C(=O)N[C@@H](CO)C(=O)N1CCC[C@H]1C(=O)N[C@@H](CCCNC(=N)N)C(N)=O)C(C)C
B6: H-PS-S(O-octyl)-FLSPEHE()RVQK()RKESKKPPAKLQPR-NH2 (peptide)
peptide: H-PSS(Octyl)FLSPEHERVQKRKESKKPPAKLQPR-NH2
modifications: lactam 10-14
SMILES: CCCCCCCCOC[C@H](NC(=O)[C@H](CO)NC(=O)[C@@H]1CCCN1)C(=O)N[C@@H](Cc1ccccc1)C(=O)N[C@@H](CC(C)C)C(=O)N[C@@H](CO)C(=O)N1CCC[C@H]1C(=O)N[C@@H](CCC(=O)O)C(=O)N[C@@H](Cc1c[nH]cn1)C(=O)N[C@H]1CCC(=O)NCCCC[C@@H](C(=O)N[C@@H](CCCNC(=N)N)C(=O)N[C@@H](CCCCN)C(=O)N[C@@H](CCC(=O)O)C(=O)N[C@@H](CO)C(=O)N[C@@H](CCCCN)C(=O)N[C@@H](CCCCN)C(=O)N2CCC[C@H]2C(=O)N2CCC[C@H]2C(=O)N[C@@H](C)C(=O)N[C@@H](CCCCN)C(=O)N[C@@H](CC(C)C)C(=O)N[C@@H](CCC(N)=O)C(=O)N2CCC[C@H]2C(=O)N[C@@H](CCCNC(=N)N)C(N)=O)NC(=O)[C@H](CCC(N)=O)NC(=O)[C@H](C(C)C)NC(=O)[C@H](CCCNC(=N)N)NC1=O
B7: H-PS-Dap(N-octanoyl)-FLS-NH2 (peptide)
peptide: H-PS[Dap](Octanoyl)FLS-NH2
SMILES: CCCCCCCC(=O)NC[C@H](NC(=O)[C@H](CO)NC(=O)[C@@H]1CCCN1)C(=O)N[C@@H](Cc1ccccc1)C(=O)N[C@@H](CC(C)C)C(=O)N[C@@H](CO)C(N)=O
B8: H-GS-S(octanoyl)-FLSPEHQRVQQRK()ESKE()PPAKLQPR-OH (peptide)
peptide: H-GSS(Octanoyl)FLSPEHQRVQQRKESKEPPAKLQPR-OH
modifications: lactam 16-20
SMILES: CCCCCCCC(=O)OC[C@H](NC(=O)[C@H](CO)NC(=O)CN)C(=O)N[C@@H](Cc1ccccc1)C(=O)N[C@@H](CC(C)C)C(=O)N[C@@H](CO)C(=O)N1CCC[C@H]1C(=O)N[C@@H](CCC(=O)O)C(=O)N[C@@H](Cc1c[nH]cn1)C(=O)N[C@@H](CCC(N)=O)C(=O)N[C@@H](CCCNC(=N)N)C(=O)N[C@H](C(=O)N[C@@H](CCC(N)=O)C(=O)N[C@@H](CCC(N)=O)C(=O)N[C@@H](CCCNC(=N)N)C(=O)N[C@H]1CCCCNC(=O)CC[C@@H](C(=O)N2CCC[C@H]2C(=O)N2CCC[C@H]2C(=O)N[C@@H](C)C(=O)N[C@@H](CCCCN)C(=O)N[C@@H](CC(C)C)C(=O)N[C@@H](CCC(N)=O)C(=O)N2CCC[C@H]2C(=O)N[C@@H](CCCNC(=N)N)C(=O)O)NC(=O)[C@H](CCCCN)NC(=O)[C@H](CO)NC(=O)[C@H](CCC(=O)O)NC1=O)C(C)C
B9: H-PS-Dap(N-octanoyl)-FL-NH2 (peptide)
peptide: H-PS[Dap](Octanoyl)FL-NH2
SMILES: CCCCCCCC(=O)NC[C@H](NC(=O)[C@H](CO)NC(=O)[C@@H]1CCCN1)C(=O)N[C@@H](Cc1ccccc1)C(=O)N[C@@H](CC(C)C)C(N)=O
B10: H-GS-S(octanoyl)-FLSPEHE()RVQK()RKESKKPPAKLQPR-OH (peptide)
peptide: H-GSS(Octanoyl)FLSPEHERVQKRKESKKPPAKLQPR-OH
modifications: lactam 10-14
SMILES: CCCCCCCC(=O)OC[C@H](NC(=O)[C@H](CO)NC(=O)CN)C(=O)N[C@@H](Cc1ccccc1)C(=O)N[C@@H](CC(C)C)C(=O)N[C@@H](CO)C(=O)N1CCC[C@H]1C(=O)N[C@@H](CCC(=O)O)C(=O)N[C@@H](Cc1c[nH]cn1)C(=O)N[C@H]1CCC(=O)NCCCC[C@@H](C(=O)N[C@@H](CCCNC(=N)N)C(=O)N[C@@H](CCCCN)C(=O)N[C@@H](CCC(=O)O)C(=O)N[C@@H](CO)C(=O)N[C@@H](CCCCN)C(=O)N[C@@H](CCCCN)C(=O)N2CCC[C@H]2C(=O)N2CCC[C@H]2C(=O)N[C@@H](C)C(=O)N[C@@H](CCCCN)C(=O)N[C@@H](CC(C)C)C(=O)N[C@@H](CCC(N)=O)C(=O)N2CCC[C@H]2C(=O)N[C@@H](CCCNC(=N)N)C(=O)O)NC(=O)[C@H](CCC(N)=O)NC(=O)[C@H](C(C)C)NC(=O)[C@H](CCCNC(=N)N)NC1=O
B11: H-GS-S(octanoyl)-FLSPE()HQRK()QQRKESKKPPAKLQPR-OH (peptide)
peptide: H-GSS(Octanoyl)FLSPEHQRKQQRKESKKPPAKLQPR-OH
modifications: lactam 8-12
SMILES: CCCCCCCC(=O)OC[C@H](NC(=O)[C@H](CO)NC(=O)CN)C(=O)N[C@@H](Cc1ccccc1)C(=O)N[C@@H](CC(C)C)C(=O)N[C@@H](CO)C(=O)N1CCC[C@H]1C(=O)N[C@H]1CCC(=O)NCCCC[C@@H](C(=O)N[C@@H](CCC(N)=O)C(=O)N[C@@H](CCC(N)=O)C(=O)N[C@@H](CCCNC(=N)N)C(=O)N[C@@H](CCCCN)C(=O)N[C@@H](CCC(=O)O)C(=O)N[C@@H](CO)C(=O)N[C@@H](CCCCN)C(=O)N[C@@H](CCCCN)C(=O)N2CCC[C@H]2C(=O)N2CCC[C@H]2C(=O)N[C@@H](C)C(=O)N[C@@H](CCCCN)C(=O)N[C@@H](CC(C)C)C(=O)N[C@@H](CCC(N)=O)C(=O)N2CCC[C@H]2C(=O)N[C@@H](CCCNC(=N)N)C(=O)O)NC(=O)[C@H](CCCNC(=N)N)NC(=O)[C@H](CCC(N)=O)NC(=O)[C@H](Cc2c[nH]cn2)NC1=O
B12: H-PS-S(O-octyl)-FLSPE()HQRK()QQRKESKKPPAKLQPR-NH2 (peptide)
peptide: H-PSS(Octyl)FLSPEHQRKQQRKESKKPPAKLQPR-NH2
modifications: lactam 8-12
SMILES: CCCCCCCCOC[C@H](NC(=O)[C@H](CO)NC(=O)[C@@H]1CCCN1)C(=O)N[C@@H](Cc1ccccc1)C(=O)N[C@@H](CC(C)C)C(=O)N[C@@H](CO)C(=O)N1CCC[C@H]1C(=O)N[C@H]1CCC(=O)NCCCC[C@@H](C(=O)N[C@@H](CCC(N)=O)C(=O)N[C@@H](CCC(N)=O)C(=O)N[C@@H](CCCNC(=N)N)C(=O)N[C@@H](CCCCN)C(=O)N[C@@H](CCC(=O)O)C(=O)N[C@@H](CO)C(=O)N[C@@H](CCCCN)C(=O)N[C@@H](CCCCN)C(=O)N2CCC[C@H]2C(=O)N2CCC[C@H]2C(=O)N[C@@H](C)C(=O)N[C@@H](CCCCN)C(=O)N[C@@H](CC(C)C)C(=O)N[C@@H](CCC(N)=O)C(=O)N2CCC[C@H]2C(=O)N[C@@H](CCCNC(=N)N)C(N)=O)NC(=O)[C@H](CCCNC(=N)N)NC(=O)[C@H](CCC(N)=O)NC(=O)[C@H](Cc2c[nH]cn2)NC1=O

target: human growth hormone secretagogue receptor type 1a (human, UniProt Q92847 1-366); assay: cell-based or functional assay
Sequence (Q92847 whole entry): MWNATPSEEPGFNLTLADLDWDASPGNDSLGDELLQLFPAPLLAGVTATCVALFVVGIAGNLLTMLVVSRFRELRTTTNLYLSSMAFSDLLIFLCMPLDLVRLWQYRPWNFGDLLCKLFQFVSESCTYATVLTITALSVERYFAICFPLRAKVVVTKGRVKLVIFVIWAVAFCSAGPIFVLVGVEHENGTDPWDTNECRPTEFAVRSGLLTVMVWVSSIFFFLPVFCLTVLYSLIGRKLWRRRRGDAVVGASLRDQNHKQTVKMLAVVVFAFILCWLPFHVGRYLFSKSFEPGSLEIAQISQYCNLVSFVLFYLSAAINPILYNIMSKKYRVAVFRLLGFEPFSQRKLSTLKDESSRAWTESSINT

EC50 (nM); Ca2+ induction in HEK293 cells stably expressing the human ghrelin receptor [nM] | Binder
0.527 | B1
0.26 | B2
1.4 | B3
0.253 | H-PS[Dap](Octanoyl)FLSPEHQRVQRKESKKPPAKLQPR-NH2 [H-PS-Dap(N-octanoyl)-FLSPEHQRVQRKESKKPPAKLQPR-NH2]
0.136 | B4
0.224 | B5
0.155 | B6
1.2 | B7
1.29 | B8
1.69 | B9
0.597 | B10
0.534 | B11
0.164 | H-PS[NH‑CH(n-C10H21)‑C(O)]FLSPEHQRVQQRKES-NH2 [H-PS-[NH-CH(n-C10H21)-C(O)]-FLSPEHQRVQQRKES-NH2]
0.365 | B12
0.255 | H-PS[NH‑CH(n-C10H21)‑C(O)]FLSPEHQRVQQRKESKKPPA-NH2 [H-PS-[NH-CH(n-C10H21)-C(O)]-FLSPEHQRVQQRKESKKPPA-NH2]
